Laboratory results as given in US20250171549A1 (Amgen, published 2025).
Where no end group is shown, it is not given here.

T1: Peptide 4 (biotinylated N-terminus CCR8 peptide, amino acids 19-30) (human, also: biotinylated, position not given here)
T1 construct: Captured on streptavidin polystyrene beads
T1 peptide: DIFSSPCDAELI

T2: Peptide 2 (biotinylated N-terminus CCR8 peptide, amino acids 7-18) (human, also: biotinylated, position not given here)
T2 construct: Captured on streptavidin polystyrene beads
T2 peptide: LSVTTVTDYYYP

T3: Peptide 5 (biotinylated N-terminus CCR8 peptide, amino acids 25-35) (human, also: biotinylated, position not given here)
T3 construct: Captured on streptavidin polystyrene beads
T3 peptide: CDAELIQTNGK

T4: murine CCR8 (murine, UniProt P56484 1-353)
T4 construct: Transiently expressed on HEK293T; also called Mouse CCR8; mCCR8
T4 sequence: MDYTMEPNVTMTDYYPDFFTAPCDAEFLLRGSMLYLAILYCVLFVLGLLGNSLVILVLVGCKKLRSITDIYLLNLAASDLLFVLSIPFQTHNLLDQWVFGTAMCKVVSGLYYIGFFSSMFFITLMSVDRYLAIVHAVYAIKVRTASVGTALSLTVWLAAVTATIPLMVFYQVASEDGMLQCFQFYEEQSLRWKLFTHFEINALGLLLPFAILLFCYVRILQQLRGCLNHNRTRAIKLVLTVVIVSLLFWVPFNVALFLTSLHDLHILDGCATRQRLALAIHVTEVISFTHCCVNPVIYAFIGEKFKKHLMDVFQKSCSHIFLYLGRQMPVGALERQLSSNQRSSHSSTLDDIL

T5: rat CCR8 (rat, UniProt P56484 1-353 (mouse entry))
T5 construct: Transiently expressed on HEK293T
T5 chain: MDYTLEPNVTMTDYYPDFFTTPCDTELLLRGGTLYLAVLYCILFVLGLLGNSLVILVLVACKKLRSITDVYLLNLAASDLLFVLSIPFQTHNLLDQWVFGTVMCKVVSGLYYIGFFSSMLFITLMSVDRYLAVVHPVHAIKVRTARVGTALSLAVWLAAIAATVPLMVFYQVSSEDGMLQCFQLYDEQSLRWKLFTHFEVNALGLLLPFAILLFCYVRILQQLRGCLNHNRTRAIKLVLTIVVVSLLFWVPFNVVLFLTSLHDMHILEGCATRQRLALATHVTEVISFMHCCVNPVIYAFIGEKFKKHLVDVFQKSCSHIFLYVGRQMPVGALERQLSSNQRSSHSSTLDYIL

T6: human CCR4 (human, UniProt P51679 1-360)
T6 construct: Transiently expressed on HEK293T; also called hCCR4
T6 sequence: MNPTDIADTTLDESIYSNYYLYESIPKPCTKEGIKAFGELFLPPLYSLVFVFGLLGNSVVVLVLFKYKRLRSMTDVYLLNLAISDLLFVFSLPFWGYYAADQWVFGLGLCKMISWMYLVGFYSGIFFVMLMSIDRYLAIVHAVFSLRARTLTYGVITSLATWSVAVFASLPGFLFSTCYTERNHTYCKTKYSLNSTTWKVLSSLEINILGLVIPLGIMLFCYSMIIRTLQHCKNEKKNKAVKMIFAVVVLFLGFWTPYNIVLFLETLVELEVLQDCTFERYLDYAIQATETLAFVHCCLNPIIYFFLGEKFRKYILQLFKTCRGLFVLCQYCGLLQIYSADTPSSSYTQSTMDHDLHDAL


Columns and labels:
[1] = target: T1, Peptide 4 (biotinylated N-terminus CCR8 …); assay: flow cytometry, biotinylated peptide on streptavidin beads
Description: (§1) The biotinylated human CCR8 peptides were captured on streptavidin polystyrene beads (Spherotech) in FACS buffer (PBS+2% Fetal Bovine Serum) at a final protein concentration of 50-100 ng/ml and incubated for 30 minutes at room temperature. Beads were washed twice with FACS buffer to remove unbound protein, centrifuged to pellet the beads, and resuspended and pooled together in StabilGuard (SurModics). The pooled biotinylated human CCR8 coated beads were added to hybridoma supernatant samples in a 96-well plate, such that the final antibody concentration was 5.0 μg/mL, and then incubated for one hour at room temperature.
(§2) Plates were washed twice with FACS buffer, centrifuged to pellet the beads, and supernatant was removed and resuspended in FACS buffer to remove unbound antibodies. Alexa Fluor 488 goat anti-human or rat IgG (Fcγ fragment specific) secondary antibodies (Jackson ImmunoResearch) made up in FACS buffer at 5.0 μg/mL were added to each well, resuspended with beads and incubated for 15 minutes at room temperature. Plates were washed twice with FACS buffer, centrifuged to pellet the beads, and supernatant was removed and resuspended in FACS buffer to remove unbound secondary antibodies. Samples were then resuspended in FACS buffer and read on either IntelliCyt® iQue Flow Cytometer.
(§3) Data are represented as a ratio of geometric mean binding to beads coated with specific peptide divided by geometric mean of binding to a bead coated with a negative control peptide (peptide with unrelated sequence). A value above two represents presence of binding.

[2] = target: T2, Peptide 2 (biotinylated N-terminus CCR8 …); assay: as above
Description: as §1, §2, §3

[3] = target: T3, Peptide 5 (biotinylated N-terminus CCR8 …); assay: as above
Description: as §1, §2, §3

[4] = target: T4, murine CCR8; assay: flow cytometry, HEK293T transfectants, supernatant 5 ug/mL
Description: (§4) Transfected cells were used to assess an antibody's binding specificity using flow cytometry on host Human Embryonic Kidney (HEK) 293T cells. Proteins were expressed on HEK 293T cells by transfection using human CCR8 (SEQ ID NO: 21), human CCR8 with an A27G point mutation (SEQ ID NO: 23), murine CCR8 (SEQ ID NO: 24), rat CCR8 (SEQ ID NO: 25), human CCR4 (SEQ ID NO: 26), or control expression vectors, Gibco™ Opti-MEM® media (Gibco), and 293Fectin™ reagent (Invitrogen) according to the manufacturer's instructions. Human T-cell lymphoma (HuT78) cell lines were also used to determine specificity to endogenously expressed CCR8.
(§5) Transfected HEK293T cells (24 hours after transfection) or HuT78 cells were resuspended in FACS buffer (PBS+2% Fetal Bovine Serum) and added to a 96-well plate. Hybridoma supernatant samples containing control antibodies 433H (BD Biosciences) or L263G8 (BioLegend), Antibody 1 IgG2, or Antibody 2 IgG2 were added at a final concentration of 5.0 μg/mL, cells were resuspended and incubated for 1 hour at 4° C. Plates were washed twice with FACS buffer, centrifuged to pellet the cells, and supernatant was removed and resuspended in FACS buffer to remove unbound antibodies.
(§6) Alexa Fluor 647 goat anti-human or rat IgG (Fcγ fragment specific) secondary antibodies (Jackson ImmunoResearch) made up in FACS buffer at 5.0 μg/mL were added to each well, and cells were resuspended and incubated for 15 minutes at 4° C. Plates were washed twice with FACS buffer, centrifuged to pellet the cells, and supernatant was removed and resuspended in FACS buffer to remove unbound secondary antibodies. Samples were resuspended in FACS buffer and read on either IntelliCyt® iQue or BD Accuri™ Flow Cytometer with an Intellicyt HyperCyt autosampler.

[5] = target: T5, rat CCR8; assay: as above
Description: as §4, §5, §6

[6] = target: T7, human CCR8 with an A27G point mutation (human, UniProt P51685 1-355); assay: as above
T7 construct: Transiently expressed on HEK293T; also called Human CCR8 [A27G]; humanCCR8[A27G]
T7 sequence (P51685 whole entry A27G): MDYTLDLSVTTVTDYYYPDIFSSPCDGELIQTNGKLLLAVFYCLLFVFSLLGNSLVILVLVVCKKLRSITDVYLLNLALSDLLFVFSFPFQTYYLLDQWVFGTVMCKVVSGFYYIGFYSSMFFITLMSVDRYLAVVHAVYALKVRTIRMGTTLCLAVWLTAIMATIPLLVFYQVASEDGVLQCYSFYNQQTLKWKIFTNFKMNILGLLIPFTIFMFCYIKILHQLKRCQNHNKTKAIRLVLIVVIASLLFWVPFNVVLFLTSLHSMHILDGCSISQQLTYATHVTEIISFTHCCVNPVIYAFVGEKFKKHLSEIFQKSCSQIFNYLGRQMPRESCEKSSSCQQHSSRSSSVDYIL
Description: as §4, §5, §6

[7] = target: T6, human CCR4; assay: flow cytometry, HEK293T transfectants
Description: as §4
Transfected HEK293T cells (24 hours after transfection) or HuT78 cells were resuspended in FACS buffer (PBS+2% Fetal Bovine Serum) and added to a 96-well plate. […]
as §6, with “Plates were washed twice with FACS buffer, centrifuged to pellet the cells, and supernatant was removed and resuspended in FACS buffer to remove unbound secondary antibodies.” left out

| binding result [1] | binding result [2] | binding result [3] | binding by FACS (read-out not named) [4] | binding by FACS (read-out not named) [5] | binding by FACS (read-out not named) [6] | binding result [7] | Binder |
| --- | --- | --- | --- | --- | --- | --- | --- |
| no binding | no binding | no binding | 24700 | 105000 | 36900 | no binding (tested: 5.0 ug/mL) | Antibody 1 IgG2 (antibody, IgG2; tested as hybridoma supernatant) heavy: EVQLVESGGGLVKPGGSLRLSCAASGFTFSNARMGWVRQAPGKGLEWVGRIKSKTEGGTRDYAAPVKGRFTISRDDSKNTLYLQMNSLKTEDTAVYYCTSYSGVWGQGTMVTVSSASTKGPSVFPLAPCSRSTSESTAALGCLVKDYFPEPVTVSWNSGALTSGVHTFPAVLQSSGLYSLSSVVTVPSSNFGTQTYTCNVDHKPSNTKVDKTVERKCCVECPPCPAPPVAGPSVFLFPPKPKDTLMISRTPEVTCVVVDVSHEDPEVQFNWYVDGVEVHNAKTKPREEQFNSTFRVVSVLTVVHQDWLNGKEYKCKVSNKGLPAPIEKTISKTKGQPREPQVYTLPPSREEMTKNQVSLTCLVKGFYPSDIAVEWESNGQPENNYKTTPPMLDSDGSFFLYSKLTVDKSRWQQGNVFSCSVMHEALHNHYTQKSLSLSPGK light: not shown |
| no binding | no binding | no binding | 3600 | 11000 | 24200 | no binding (tested: 5.0 ug/mL) | Antibody 2 IgG2 (antibody, V domains shown, IgG2; tested as hybridoma supernatant) VH: QVQLVESGGGVVQPGRSLRLSCAASGFTFSNYGMHWVRQAPGKGLEWVAVISYDGSNKFYADSVKGRFTISRDNSKKTLYLQMSSLRVEDTAVYYCARAGGIGRFDYWGQGTLVTVSS VL: DFVMTQTPLSLSVTPGQPASISCKYSQSLLHSDGKTYLFWYLQKPGQPPHLLIYEVSNRFSGVPDRFSGSGSGTDFTLKISRVEAEDVGLYYCMQTLKLPLTFGGGTKVEINR |
